Measurements reported in patent US7049080B2, “Process for detecting serine/threonine kinase activity” (priority 2000, dated 2006).
Non-standard residues stand in square brackets, D forms with d. *: point of attachment. 5‑TAMRA = CN(C)c1ccc2c(-c3ccc(C(=O)*)cc3C(=O)[O-])c3ccc(N(C)C)cc3[o+]c2c1; pY = N[C@@H](Cc1ccc(OP(=O)(O)O)cc1)C(=O)O; pT = C[C@@H](OP(=O)(O)O)[C@H](N)C(=O)O; AEEA = NCCOCCOCC(=O)O

Columns and labels:
[1] = tested on: T1, P1° peptide, H-Lys-Phe-Met-Met-Thr-Pro-pTyr-Val-Val-Thr-Arg-NH2
T1 sequence: KFMMTPYVVTR

[2] = tested on: NEB antibody #9251; test: FP controls conjugate/high/low (Example 8); assay type: binding, rabbit; conditions: 0 h
Description: The following reagents have been used (explanations later on): Hepes buffer, MgCl2 (10 mM), ATP (20 μM), P1^∘ peptide (100 μM), polyclonal antibody NEB #9251 (1:20), P1*^∘-TAMRA (5 nM), Pluronic (0.1%), BSA (0.01%), MKK7 at (0.04, 0.08 and 0.2 μM), EDTA (10 mM) (all final conc.).
The enzyme reactions were performed in Eppendorf reaction tubes at RT. Aliquots of 20 μl were withdrawn from the reactions at different time points and mixed with 10 μl STOP solution. The stopped reactions were incubated at RT for at least 30 min and measured by Fluorescence Polarization.
(§1) Bis-phosphorylated peptide P1*^∘ can be used as competitor, resulting in free labelled ligand called “low” or “negative control”. This can be seen in the following table 1.

[3] = tested on: NEB antibody #9251; test: FP controls conjugate/high/low (Example 7); assay type: binding, rabbit; conditions: 0 h
Description: The following reagents have been used (the compositions of the buffers and specifications of the reagents are explained in more detail later on): Hepes buffer, MgCl2 10 mM, ATP 20 μM, P1^∘ peptide at 100 μM, NEB antibody # 9251 1:20 dilution, P1*^∘-TAMRA 5 nM, Pluronic 0.1%, MKK7 at 0, 0.005, 0.02, 0.08, 0.2, 0.5 and 2 μM.
After addition of MKK7, the enzyme reactions were performed in Nunc chambers at RT. The samples were continuously measured at different time points by Fluorescence polarization.
as §1

[4] = molecular target: polyclonal phospho-JNK antibody NEB #9251; test: Binding of polyclonal phospho-JNK antibody to TAMRA-labelled peptides (fluorescence polarization); parameters: species or system rabbit; conditions: antibody 1:20, peptide 5 nM, read-out: KD, affinity of polyclonal phospho-JNK antibody for peptide
From the text: The polarization values dramatically increase when using the double-phosphorylated peptide substrate P1*^∘ in contrast to mono-phosphorylated labelled peptide P1^∘ (sequence see above).
Measurement of the Binding Affinity (KD) of Antibody NEB #9251:
This polyclonal antibody detects all three isoforms of the SAPK1/JNK proteins only when they are activated by dual phosphorylation at threonine183/tyrosine185. Binding of poly-clonal phospho-JNK antibody (at a dilution of 1:20) from NEB to TAMRA-labelled P1^∘- and P1*^∘ peptides (each 5 nM) was measured by fluorescence polarization.

[5] = Low: P1*°-Tamra + NEB ab (1:20) + competitor 200 nM

Substance: MKK7 kinase (Upstate Biotech cat. no. 14-366)
- FP, 100 µM P1°, MKK7 0.005 µM, 0 h [1]: 132 mP
- FP, 100 µM P1°, MKK7 0.005 µM, 0.5 h [1]: 137 mP
- FP, 100 µM P1°, MKK7 0.005 µM, 1 h [1]: 137 mP
- FP, 100 µM P1°, MKK7 0.005 µM, 1.5 h [1]: 137 mP
- FP, 100 µM P1°, MKK7 0.005 µM, 3 h [1]: 138 mP
- FP, 100 µM P1°, MKK7 0.02 µM, 0 h [1]: 135 mP
- FP, 100 µM P1°, MKK7 0.02 µM, 0.5 h [1]: 140 mP
- FP, 100 µM P1°, MKK7 0.02 µM, 1 h [1]: 141 mP
- FP, 100 µM P1°, MKK7 0.02 µM, 1.5 h [1]: 140 mP
- FP, 100 µM P1°, MKK7 0.02 µM, 3 h [1]: 140 mP
- FP, 100 µM P1°, MKK7 0.08 µM, 0 h [1]: 134 mP
- FP, 100 µM P1°, MKK7 0.08 µM, 0.5 h [1]: 138 mP
- FP, 100 µM P1°, MKK7 0.08 µM, 1 h [1]: 136 mP
- FP, 100 µM P1°, MKK7 0.08 µM, 1.5 h [1]: 128 mP
- FP, 100 µM P1°, MKK7 0.08 µM, 3 h [1]: 115 mP
- FP, 100 µM P1°, MKK7 0.2 µM, 0 h [1]: 135 mP
- FP, 100 µM P1°, MKK7 0.2 µM, 0.5 h [1]: 132 mP
- FP, 100 µM P1°, MKK7 0.2 µM, 1 h [1]: 122 mP
- FP, 100 µM P1°, MKK7 0.2 µM, 1.5 h [1]: 114 mP
- FP, 100 µM P1°, MKK7 0.2 µM, 3 h [1]: 105 mP
- FP, 100 µM P1°, MKK7 0.5 µM, 0 h [1]: 135 mP
- FP, 100 µM P1°, MKK7 0.5 µM, 0.5 h [1]: 126 mP
- FP, 100 µM P1°, MKK7 0.5 µM, 1 h [1]: 115 mP
- FP, 100 µM P1°, MKK7 0.5 µM, 1.5 h [1]: 109 mP
- FP, 100 µM P1°, MKK7 0.5 µM, 3 h [1]: 107 mP
- FP, 100 µM P1°, MKK7 1.0 µM, 0 h [1]: 136 mP
- FP, 100 µM P1°, MKK7 1.0 µM, 0.5 h [1]: 120 mP
- FP, 100 µM P1°, MKK7 1.0 µM, 1 h [1]: 112 mP
- FP, 100 µM P1°, MKK7 1.0 µM, 1.5 h [1]: 105 mP
- FP, 100 µM P1°, MKK7 1.0 µM, 3 h [1]: 108 mP
- FP, NEB ab in STOP sol., MKK7 0.04 µM, 0 h [1]: 147 mP
- FP, NEB ab in STOP sol., MKK7 0.04 µM, 0.5 h [1]: 142 mP
- FP, NEB ab in STOP sol., MKK7 0.04 µM, 1 h [1]: 140 mP
- FP, NEB ab in STOP sol., MKK7 0.04 µM, 1.5 h [1]: 136 mP
- FP, NEB ab in STOP sol., MKK7 0.04 µM, 2 h [1]: 134 mP
- FP, NEB ab in STOP sol., MKK7 0.04 µM, 3 h [1]: 138 mP
- FP, NEB ab in STOP sol., MKK7 0.08 µM, 0 h [1]: 143 mP
- FP, NEB ab in STOP sol., MKK7 0.08 µM, 0.5 h [1]: 139 mP
- FP, NEB ab in STOP sol., MKK7 0.08 µM, 1 h [1]: 134 mP
- FP, NEB ab in STOP sol., MKK7 0.08 µM, 1.5 h [1]: 122 mP
- FP, NEB ab in STOP sol., MKK7 0.08 µM, 2 h [1]: 116 mP
- FP, NEB ab in STOP sol., MKK7 0.08 µM, 3 h [1]: 125 mP
- FP, NEB ab in STOP sol., MKK7 0.2 µM, 0 h [1]: 148 mP
- FP, NEB ab in STOP sol., MKK7 0.2 µM, 0.5 h [1]: 130 mP
- FP, NEB ab in STOP sol., MKK7 0.2 µM, 1 h [1]: 114 mP
- FP, NEB ab in STOP sol., MKK7 0.2 µM, 1.5 h [1]: 103 mP
- FP, NEB ab in STOP sol., MKK7 0.2 µM, 2 h [1]: 99.2 mP
- FP, NEB ab in STOP sol., MKK7 0.2 µM, 3 h [1]: 119 mP
- FP, NEB ab in reaction, MKK7 0.04 µM, 0 h [1]: 150 mP
- FP, NEB ab in reaction, MKK7 0.04 µM, 0.5 h [1]: 128 mP
- FP, NEB ab in reaction, MKK7 0.04 µM, 1 h [1]: 126 mP
- FP, NEB ab in reaction, MKK7 0.04 µM, 1.5 h [1]: 113 mP
- FP, NEB ab in reaction, MKK7 0.04 µM, 2 h [1]: 110 mP
- FP, NEB ab in reaction, MKK7 0.04 µM, 3 h [1]: 78.6 mP
- FP, NEB ab in reaction, MKK7 0.08 µM, 0 h [1]: 138 mP
- FP, NEB ab in reaction, MKK7 0.08 µM, 0.5 h [1]: 122 mP
- FP, NEB ab in reaction, MKK7 0.08 µM, 1 h [1]: 106 mP
- FP, NEB ab in reaction, MKK7 0.08 µM, 1.5 h [1]: 86.4 mP
- FP, NEB ab in reaction, MKK7 0.08 µM, 2 h [1]: 84.5 mP
- FP, NEB ab in reaction, MKK7 0.08 µM, 3 h [1]: 65 mP
- FP, NEB ab in reaction, MKK7 0.2 µM, 0 h [1]: 137 mP
- FP, NEB ab in reaction, MKK7 0.2 µM, 0.5 h [1]: 101 mP
- FP, NEB ab in reaction, MKK7 0.2 µM, 1 h [1]: 83.1 mP
- FP, NEB ab in reaction, MKK7 0.2 µM, 1.5 h [1]: 78.1 mP
- FP, NEB ab in reaction, MKK7 0.2 µM, 2 h [1]: 72.1 mP
- FP, NEB ab in reaction, MKK7 0.2 µM, 3 h [1]: 59.4 mP
- Km for P1° peptide (read-out: fluorescence polarization) [1]: Km=94 nM±59 nM
- phosphorylation of P1° peptide substrate by MKK7 kinase [1]: Efficient phosphorylation of P1° peptide is measured

Substance: H-Lys-Phe-Met-Met-Thr-Pro-pTyr-Val-Val-Thr-Arg-NH2 (H-KFMMTP[pY]VVTR-NH2; SMILES CSCC[C@H](NC(=O)[C@H](Cc1ccccc1)NC(=O)[C@@H](N)CCCCN)C(=O)N[C@@H](CCSC)C(=O)N[C@H](C(=O)N1CCC[C@H]1C(=O)N[C@@H](Cc1ccc(OP(=O)(O)O)cc1)C(=O)N[C@H](C(=O)N[C@H](C(=O)N[C@H](C(=O)N[C@@H](CCCNC(=N)N)C(N)=O)[C@@H](C)O)C(C)C)C(C)C)[C@@H](C)O) [P1^∘]
- Fluorescence Polarization [2, 5]: 71.5 mP

Substance: H-Lys-Phe-Met-Met-pThr-Pro-pTyr-Val-Val-Thr-Arg-NH2 (H-KFMM[pT]P[pY]VVTR-NH2; SMILES CSCC[C@H](NC(=O)[C@H](Cc1ccccc1)NC(=O)[C@@H](N)CCCCN)C(=O)N[C@@H](CCSC)C(=O)N[C@H](C(=O)N1CCC[C@H]1C(=O)N[C@@H](Cc1ccc(OP(=O)(O)O)cc1)C(=O)N[C@H](C(=O)N[C@H](C(=O)N[C@H](C(=O)N[C@@H](CCCNC(=N)N)C(N)=O)[C@@H](C)O)C(C)C)C(C)C)[C@@H](C)OP(=O)(O)O) [P1*^∘]
- Fluorescence Polarization [3, 5]: 84.5 mP

Substance: 5-TAMRA-AEEA-Lys-Phe-Met-Met-pThr-Pro-pTyr-Val-Val-Thr-Arg-NH2 ({5‑TAMRA-AEEA}-KFMM[pT]P[pY]VVTR-NH2; SMILES CSCC[C@H](NC(=O)[C@H](Cc1ccccc1)NC(=O)[C@H](CCCCN)NC(=O)COCCOCCNC(=O)c1ccc(-c2c3ccc(N(C)C)cc3[o+]c3cc(N(C)C)ccc23)c(C(=O)[O-])c1)C(=O)N[C@@H](CCSC)C(=O)N[C@H](C(=O)N1CCC[C@H]1C(=O)N[C@@H](Cc1ccc(OP(=O)(O)O)cc1)C(=O)N[C@H](C(=O)N[C@H](C(=O)N[C@H](C(=O)N[C@@H](CCCNC(=N)N)C(N)=O)[C@@H](C)O)C(C)C)C(C)C)[C@@H](C)OP(=O)(O)O) [P1*^∘-TAMRA]
- Kd [4]: 2.6 nM
- Fluorescence Polarization ([2]; Conjugate alone): 33.2 mP
- Fluorescence Polarization ([2]; High: + NEB ab (1:20)): 145.7 mP
- Fluorescence Polarization ([3]; Conjugate alone): 39.7 mP
- Fluorescence Polarization ([3]; High: + NEB ab (1:20)): 139.1 mP
